# In patent publication US20250163186A1 (PHYLAXIS BIOSCIENCE, published 2025):
# Biological target: T1, human IgE (human, UniProt P01854 1-428)
# T1 construct: written under the same molecule; also called IgE (Abcam ab65866); soluble IgE
# Test: ELISA, clone lysate on IgE-coated plate
# Description: Each amino acid in CDR1 (SEQ ID NO:3), CDR2 (SEQ ID NO:68), and CDR3 (SEQ ID NO:74) was randomly replaced such that the 20 natural amino acids would likely all have been sampled at every position. The expression vector for the VHH containing the mutagenized CDRs was then transfected into E. coli, and at least 96 clones were randomly chosen for each position mutated in each CDR. This gives likely coverage of all potential mutations at each position since the probability to get any given amino acid at that position is 5%. […] The heat maps represent the relative binding for each clone determined by the range of OD values from the ELISA background to WT CDR binding (FIGS. 16A-16C). Site numbering for each residue tested is indicated by the inset tables in FIGS. 16A-16C.
# T1 sequence (P01854 other isoform, or with tags, fused parts or gaps limits assumed, form in doubt): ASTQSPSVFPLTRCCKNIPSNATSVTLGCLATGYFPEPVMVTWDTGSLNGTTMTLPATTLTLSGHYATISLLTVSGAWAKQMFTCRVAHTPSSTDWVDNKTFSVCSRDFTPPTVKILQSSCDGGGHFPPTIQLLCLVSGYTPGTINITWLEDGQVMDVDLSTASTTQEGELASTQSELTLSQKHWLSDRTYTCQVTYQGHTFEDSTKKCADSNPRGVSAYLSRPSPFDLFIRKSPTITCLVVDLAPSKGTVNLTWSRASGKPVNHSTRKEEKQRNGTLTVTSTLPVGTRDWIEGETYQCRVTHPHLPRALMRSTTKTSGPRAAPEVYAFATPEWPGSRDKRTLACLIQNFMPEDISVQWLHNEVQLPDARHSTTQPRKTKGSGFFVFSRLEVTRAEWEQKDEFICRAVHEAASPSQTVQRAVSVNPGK
Binder,Confirm OD450 Duplicate1,Confirm OD450 Duplicate2,R1 Screening OD450
"2-1F11 (VHH, also called hzB10v40 VHH, CDR1 site 2 L to I) VHH: EVQLLESGGGEVQPGGSLRLSCVASGITFSSYNMGWLRQAPGKEREFVGLSGSSSTSTYYAESVKGRFTISRDNAKNTVYLQMTSLRAEDTAVYYCAARRLLSTYWSDRSWDFWGQGTLVTVEP",0.647,0.601,0.754
"2-2C3 (VHH, also called hzB10v40 VHH, CDR1 site 2 L to V) VHH: EVQLLESGGGEVQPGGSLRLSCVASGVTFSSYNMGWLRQAPGKEREFVGLSGSSSTSTYYAESVKGRFTISRDNAKNTVYLQMTSLRAEDTAVYYCAARRLLSTYWSDRSWDFWGQGTLVTVEP",0.621,0.62,0.914
"3-1B9 (VHH, also called hzB10v40 VHH, CDR1 site 3 T to N) VHH: EVQLLESGGGEVQPGGSLRLSCVASGLNFSSYNMGWLRQAPGKEREFVGLSGSSSTSTYYAESVKGRFTISRDNAKNTVYLQMTSLRAEDTAVYYCAARRLLSTYWSDRSWDFWGQGTLVTVEP",0.585,0.634,0.945
"3-1B10 (VHH, also called hzB10v40 VHH, CDR1 site 3 T to K) VHH: EVQLLESGGGEVQPGGSLRLSCVASGLKFSSYNMGWLRQAPGKEREFVGLSGSSSTSTYYAESVKGRFTISRDNAKNTVYLQMTSLRAEDTAVYYCAARRLLSTYWSDRSWDFWGQGTLVTVEP",0.57,0.594,0.904
"4-1F10 (VHH, also called hzB10v40 VHH, CDR1 site 4 F to Y) VHH: EVQLLESGGGEVQPGGSLRLSCVASGLTYSSYNMGWLRQAPGKEREFVGLSGSSSTSTYYAESVKGRFTISRDNAKNTVYLQMTSLRAEDTAVYYCAARRLLSTYWSDRSWDFWGQGTLVTVEP",0.697,0.545,0.709
"4-2E2 (VHH, also called hzB10v40 VHH, CDR1 site 4 F to G) VHH: EVQLLESGGGEVQPGGSLRLSCVASGLTGSSYNMGWLRQAPGKEREFVGLSGSSSTSTYYAESVKGRFTISRDNAKNTVYLQMTSLRAEDTAVYYCAARRLLSTYWSDRSWDFWGQGTLVTVEP",0.579,0.586,1.05
"3-1A1 (VHH, also called hzB10v40 VHH, CDR1 site 3 T to V) VHH: EVQLLESGGGEVQPGGSLRLSCVASGLVFSSYNMGWLRQAPGKEREFVGLSGSSSTSTYYAESVKGRFTISRDNAKNTVYLQMTSLRAEDTAVYYCAARRLLSTYWSDRSWDFWGQGTLVTVEP",0.607,0.572,0.896
"5A1 (VHH, also called hzB10v40 VHH, CDR1 site 5 S to K) VHH: EVQLLESGGGEVQPGGSLRLSCVASGLTFKSYNMGWLRQAPGKEREFVGLSGSSSTSTYYAESVKGRFTISRDNAKNTVYLQMTSLRAEDTAVYYCAARRLLSTYWSDRSWDFWGQGTLVTVEP",0.609,0.573,0.914
"4-1F11 (VHH, also called hzB10v40 VHH, CDR1 site 4 F to P) VHH: EVQLLESGGGEVQPGGSLRLSCVASGLTPSSYNMGWLRQAPGKEREFVGLSGSSSTSTYYAESVKGRFTISRDNAKNTVYLQMTSLRAEDTAVYYCAARRLLSTYWSDRSWDFWGQGTLVTVEP",0.582,0.483,0.798
"5A10 (VHH, also called hzB10v40 VHH, CDR1 site 5 S to A) VHH: EVQLLESGGGEVQPGGSLRLSCVASGLTFASYNMGWLRQAPGKEREFVGLSGSSSTSTYYAESVKGRFTISRDNAKNTVYLQMTSLRAEDTAVYYCAARRLLSTYWSDRSWDFWGQGTLVTVEP",0.554,0.549,0.96
"5C3 (VHH, also called hzB10v40 VHH, CDR1 site 5 S to D) VHH: EVQLLESGGGEVQPGGSLRLSCVASGLTFDSYNMGWLRQAPGKEREFVGLSGSSSTSTYYAESVKGRFTISRDNAKNTVYLQMTSLRAEDTAVYYCAARRLLSTYWSDRSWDFWGQGTLVTVEP",0.546,0.556,0.897
"3-1H1 (VHH, also called hzB10v40 VHH, CDR1 site 3 T to I) VHH: EVQLLESGGGEVQPGGSLRLSCVASGLIFSSYNMGWLRQAPGKEREFVGLSGSSSTSTYYAESVKGRFTISRDNAKNTVYLQMTSLRAEDTAVYYCAARRLLSTYWSDRSWDFWGQGTLVTVEP",0.567,0.559,0.857

# Now from value to binder:
Confirm OD450 Duplicate1,Confirm OD450 Duplicate2,R1 Screening OD450,Binder
0.556,0.512,0.875,"6G9 (VHH, also called hzB10v40 VHH, CDR1 site 6 S to A) VHH: EVQLLESGGGEVQPGGSLRLSCVASGLTFSAYNMGWLRQAPGKEREFVGLSGSSSTSTYYAESVKGRFTISRDNAKNTVYLQMTSLRAEDTAVYYCAARRLLSTYWSDRSWDFWGQGTLVTVEP"
0.487,0.53,0.908,"6H1 (VHH, also called hzB10v40 VHH, CDR1 site 6 S to P) VHH: EVQLLESGGGEVQPGGSLRLSCVASGLTFSPYNMGWLRQAPGKEREFVGLSGSSSTSTYYAESVKGRFTISRDNAKNTVYLQMTSLRAEDTAVYYCAARRLLSTYWSDRSWDFWGQGTLVTVEP"
0.534,0.526,0.826,"6C2 (VHH, also called hzB10v40 VHH, CDR1 site 6 S to Q) VHH: EVQLLESGGGEVQPGGSLRLSCVASGLTFSQYNMGWLRQAPGKEREFVGLSGSSSTSTYYAESVKGRFTISRDNAKNTVYLQMTSLRAEDTAVYYCAARRLLSTYWSDRSWDFWGQGTLVTVEP"
0.498,0.467,0.921,"9F1 (VHH, also called hzB10v40 VHH, CDR1 site 9 M to S) VHH: EVQLLESGGGEVQPGGSLRLSCVASGLTFSSYNSGWLRQAPGKEREFVGLSGSSSTSTYYAESVKGRFTISRDNAKNTVYLQMTSLRAEDTAVYYCAARRLLSTYWSDRSWDFWGQGTLVTVEP"
0.435,0.442,0.905,"9D1 (VHH, also called hzB10v40 VHH, CDR1 site 9 M to I) VHH: EVQLLESGGGEVQPGGSLRLSCVASGLTFSSYNIGWLRQAPGKEREFVGLSGSSSTSTYYAESVKGRFTISRDNAKNTVYLQMTSLRAEDTAVYYCAARRLLSTYWSDRSWDFWGQGTLVTVEP"
0.571,0.568,0.97,"8H11 (VHH, also called hzB10v40 VHH, CDR1 site 8 N to R) VHH: EVQLLESGGGEVQPGGSLRLSCVASGLTFSSYRMGWLRQAPGKEREFVGLSGSSSTSTYYAESVKGRFTISRDNAKNTVYLQMTSLRAEDTAVYYCAARRLLSTYWSDRSWDFWGQGTLVTVEP"
0.417,0.402,0.885,"6F11 (VHH, also called hzB10v40 VHH, CDR1 site 6 S to R) VHH: EVQLLESGGGEVQPGGSLRLSCVASGLTFSRYNMGWLRQAPGKEREFVGLSGSSSTSTYYAESVKGRFTISRDNAKNTVYLQMTSLRAEDTAVYYCAARRLLSTYWSDRSWDFWGQGTLVTVEP"
0.522,0.539,0.897,"9E8 (VHH, also called hzB10v40 VHH, CDR1 site 9 M to L) VHH: EVQLLESGGGEVQPGGSLRLSCVASGLTFSSYNLGWLRQAPGKEREFVGLSGSSSTSTYYAESVKGRFTISRDNAKNTVYLQMTSLRAEDTAVYYCAARRLLSTYWSDRSWDFWGQGTLVTVEP"
0.452,0.454,0.879,"9B1 (VHH, also called hzB10v40 VHH, CDR1 site 9 M to V) VHH: EVQLLESGGGEVQPGGSLRLSCVASGLTFSSYNVGWLRQAPGKEREFVGLSGSSSTSTYYAESVKGRFTISRDNAKNTVYLQMTSLRAEDTAVYYCAARRLLSTYWSDRSWDFWGQGTLVTVEP"
0.52,0.559,0.922,"8F11 (VHH, also called hzB10v40 VHH, CDR1 site 8 N to T) VHH: EVQLLESGGGEVQPGGSLRLSCVASGLTFSSYTMGWLRQAPGKEREFVGLSGSSSTSTYYAESVKGRFTISRDNAKNTVYLQMTSLRAEDTAVYYCAARRLLSTYWSDRSWDFWGQGTLVTVEP"
0.454,0.468,0.817,"6E11 (VHH, also called hzB10v40 VHH, CDR1 site 6 S to T) VHH: EVQLLESGGGEVQPGGSLRLSCVASGLTFSTYNMGWLRQAPGKEREFVGLSGSSSTSTYYAESVKGRFTISRDNAKNTVYLQMTSLRAEDTAVYYCAARRLLSTYWSDRSWDFWGQGTLVTVEP"
0.534,0.552,0.917,"8G10 (VHH, also called hzB10v40 VHH, CDR1 site 8 N to S) VHH: EVQLLESGGGEVQPGGSLRLSCVASGLTFSSYSMGWLRQAPGKEREFVGLSGSSSTSTYYAESVKGRFTISRDNAKNTVYLQMTSLRAEDTAVYYCAARRLLSTYWSDRSWDFWGQGTLVTVEP"
0.475,0.488,0.852,"6A9 (VHH, also called hzB10v40 VHH, CDR1 site 6 S to E) VHH: EVQLLESGGGEVQPGGSLRLSCVASGLTFSEYNMGWLRQAPGKEREFVGLSGSSSTSTYYAESVKGRFTISRDNAKNTVYLQMTSLRAEDTAVYYCAARRLLSTYWSDRSWDFWGQGTLVTVEP"
0.545,0.55,0.893,"5H11 (VHH, also called hzB10v40 VHH, CDR1 site 5 S to R) VHH: EVQLLESGGGEVQPGGSLRLSCVASGLTFRSYNMGWLRQAPGKEREFVGLSGSSSTSTYYAESVKGRFTISRDNAKNTVYLQMTSLRAEDTAVYYCAARRLLSTYWSDRSWDFWGQGTLVTVEP"
